# Data: the supplement of paper PMC10126150
# ± gives the standard deviation of the averaged measurements.
# Tested on: ATP
# Experiment: switch fluorescence ratio, 500 uM ATP over buffer (Cy3 cluster intensity, sum of 5 cycles each) (fold (ratio)); higher = stronger signal-on switching upon ATP binding; sequences stand for … in TCGTCGGCAGCGTCAGATGTGTATAAGAGACAGTTTTTTTTTTTTTTTTTTTTTTTTT…TC
# Conditions: aptamer strand: ATP DNA aptamer (quencher-CACCTGGGGGAGTATTGCGGAGGAAGG + anchor), 100 nM annealed; ATP concentration: 500 uM
# In short: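 Cy3-labelled switching-strand clusters on a modified Illumina MiSeq flow-cell were annealed to 100 nM quencher-labelled ATP aptamer and imaged first in selection buffer, then after 15 min with 500 uM ATP at 22 °C. NaOH stripping and re-annealing separated each of five buffer/ATP cycles, and clusters outside 100-1000 RFU were excluded. The fluorescence ratio sums target-cycle Cy3 intensity over buffer-cycle Cy3 intensity per cluster and averages it per switch-domain sequence.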
# 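Further: ATP exposure 15 min at 22 °C before imaging.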
row,Sequence,switch fluorescence ratio
1,TTAGTTAAAG,1 ± 0.014
2,TTAGTTATAC,1.78 ± 0.59
3,TTAGTTATTC,1.022 ± 0.0032
4,TTAGTTGGTC,0.996 ± 0.029
5,TTAGTTGTGG,0.982 ± 0.02
6,TTAGTTTAAT,1.02 ± 0.024
7,TTAGTTTATG,0.981 ± 0.017
8,TTAGTTTCTT,0.999 ± 0.017
9,TTAGTTTTAC,1.004 ± 0.0029
10,TTAGTTTTCT,0.96 ± 0.013
11,TTAGTTTTTT,1.01 ± 0.019
12,TTATAAAAAC,0.982 ± 0.076
13,TTATAAAAAG,0.974 ± 0.042
14,TTATAACTTT,1.02 ± 0.028
15,TTATAAGAGG,0.979 ± 0.0047
16,TTATAAGCGA,1.02 ± 0.035
17,TTATAAGGAA,0.981 ± 0.015
18,TTATAAGGGA,0.977 ± 0.049
19,TTATAAGTTA,0.9814 ± 0.0043
20,TTATAAGTTT,1.03 ± 0.078
21,TTATAATAGT,1 ± 0.013
22,TTATAATTGT,0.9966 ± 0.0022
23,TTATAATTTC,1.009 ± 0.0023
24,TTATACGCTT,1.1 ± 0.017
25,TTATAGAGGT,1.01 ± 0.011

row,Sequence,switch fluorescence ratio
1,TTATAGGGCG,1.02 ± 0.047
2,TTATATCAGA,1.016 ± 0.0083
3,TTATATGTAG,0.993 ± 0.024
4,TTATATGTGT,1.01 ± 0.039
5,TTATATGTTA,1.03 ± 0.055
6,TTATATTACT,1.01 ± 0.027
7,TTATATTTAG,0.988 ± 0.011
8,TTATATTTAT,1.03 ± 0.069
9,TTATATTTTG,0.998 ± 0.017
10,TTATATTTTT,1.02 ± 0.023
11,TTATCACTGG,1 ± 0.07
12,TTATCAGTGT,0.972 ± 0.063
13,TTATCATTTA,1.01 ± 0.03
14,TTATCGGTAT,1 ± 0.042
15,TTATCTGATT,0.9952 ± 0.0017
16,TTATCTGCCT,1.06 ± 0.072
17,TTATGAACTT,1 ± 0.035
18,TTATGAAGAC,1.025 ± 0.01
19,TTATGAAGGA,1.02 ± 0.021
20,TTATGAAGGT,1.02 ± 0.06
21,TTATGATTCT,0.972 ± 0.025
22,TTATGCGGGG,0.995 ± 0.046
23,TTATGCTGGG,0.974 ± 0.012
24,TTATGGGACA,1.026 ± 0.0097
25,TTATGGGATT,0.993 ± 0.019

row,Sequence,switch fluorescence ratio
1,TTATGGGCGG,1.02 ± 0.047
2,TTATGGTCGG,0.984 ± 0.016
3,TTATGGTGCA,0.99 ± 0.023
4,TTATGGTGGT,0.973 ± 0.027
5,TTATGTAATC,1.19 ± 0.25
6,TTATGTCCGG,1.02 ± 0.025
7,TTATGTGACT,1.01 ± 0.021
8,TTATGTGCGA,1.02 ± 0.013
9,TTATGTGTCG,0.983 ± 0.033
10,TTATGTGTGT,0.996 ± 0.028
11,TTATGTTAAA,1.01 ± 0.022
12,TTATGTTTGG,1.02 ± 0.033
13,TTATGTTTTT,1.01 ± 0.025
14,TTATTAAGGG,0.98 ± 0.047
15,TTATTAATAC,1.177 ± 0.0012
16,TTATTACGTG,1.01 ± 0.023
17,TTATTAGCTT,0.9916 ± 0.004
18,TTATTAGTAG,1.002 ± 0.0049
19,TTATTAGTGC,1.03 ± 0.1
20,TTATTAGTTT,0.994 ± 0.017
21,TTATTATACG,1.01 ± 0.054
22,TTATTATTGA,0.989 ± 0.011
23,TTATTCGGCG,1 ± 0.032
24,TTATTGATCC,0.9978 ± 0.0019
25,TTATTGGCGG,1.015 ± 0.0097

row,Sequence,switch fluorescence ratio
1,TTATTGGTTT,1.048 ± 0.0096
2,TTATTGTTGA,1.02 ± 0.011
3,TTATTTATTA,1.0338 ± 0.00047
4,TTATTTCAAC,0.9728 ± 0.0052
5,TTATTTGACT,1.01 ± 0.041
6,TTATTTGATT,1.01 ± 0.029
7,TTATTTGCCT,1.17 ± 0.18
8,TTATTTGCTG,1.02 ± 0.056
9,TTATTTGGCC,0.997 ± 0.032
10,TTATTTGTGG,0.97 ± 0.02
11,TTATTTGTTT,0.977 ± 0.018
12,TTATTTTAAA,1.01 ± 0.024
13,TTATTTTCAC,1.04 ± 0.036
14,TTATTTTGGT,1.01 ± 0.035
15,TTATTTTGTA,1.03 ± 0.013
16,TTCAAACGAG,1.01 ± 0.031
17,TTCAAAGTTT,0.993 ± 0.015
18,TTCAAATGGG,0.9991 ± 0.0053
19,TTCAACTTAT,0.954 ± 0.049
20,TTCAAGCGTT,0.982 ± 0.019
21,TTCAAGCTTT,1.01 ± 0.022
22,TTCAAGGATA,0.986 ± 0.05
23,TTCAAGTGAA,0.979 ± 0.012
24,TTCAAGTTAT,1.04 ± 0.045
25,TTCAAGTTGG,0.974 ± 0.024
